Laboratory results reported in patent publication US20030171279A1.

T1: mouse BAD (murine BAD pro-apoptotic polypeptide)
T1 chain: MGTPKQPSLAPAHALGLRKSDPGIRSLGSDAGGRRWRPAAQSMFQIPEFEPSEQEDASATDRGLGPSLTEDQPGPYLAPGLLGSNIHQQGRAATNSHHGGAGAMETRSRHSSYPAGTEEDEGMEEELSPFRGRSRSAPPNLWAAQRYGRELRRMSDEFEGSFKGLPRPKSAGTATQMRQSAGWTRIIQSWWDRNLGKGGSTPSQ

T2: HSV-1 UL34 protein, P10218
T2 chain: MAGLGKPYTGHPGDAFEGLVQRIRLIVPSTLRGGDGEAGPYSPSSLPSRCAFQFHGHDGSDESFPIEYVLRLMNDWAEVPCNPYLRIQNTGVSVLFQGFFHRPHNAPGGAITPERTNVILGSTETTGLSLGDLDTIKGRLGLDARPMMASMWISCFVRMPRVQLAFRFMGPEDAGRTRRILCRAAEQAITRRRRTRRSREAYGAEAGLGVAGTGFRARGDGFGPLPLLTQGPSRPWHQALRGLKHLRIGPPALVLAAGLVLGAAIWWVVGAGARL

B1: herpes simplex virus 1 (HSV-1) US3 protein kinase (protein)
chain: MACRKFCRVYGGQGRRKEEAVPPETKPSRVFPHGPFYTPAEDACLDSPPPETPKPSHTTPPSEAERLCHLQEILAQMYGNQDYPIEDDPSADAADDVDEDAPDDVAYPEEYAEELFLPGDATGPLIGANDHIPPPCGASPPGIRRRSRDEIGATGFTAEELDAMDREAARAISRGGKPPSTMAKLVTGMGFTIHGALTPGSEGCVFDSSHPDYPQRVIVKAGWYTSTSHEARLLRRLDHPAILPLLDLHVVSGVTCLVLPKYQADLYTYLSRRLNPLGRPQIAAVSRQLLSAVDYIHRQGIIHRDIKTENIFINTPEDICLGDFGAACFVQGSRSSPFPYGIAGTIDTNAPEVLAGDPYTTTVDIWSAGLVIFETAVHNASLFSAPRGPKRGPCDSQITRIIRQAQVHVDEFSPHPESRLTSRYRSRAAGNNRPPYTRPAWTRYYKMDIDVEYLVCKALTFDGALRPSAAELLCLPLFQQK

Experiments:
[1] = biological target: mouse BAD (murine BAD pro-apoptotic polypeptide) (mouse) (UniProt Q61337); experiment: cell-based or functional assay
[2] = biological target: T1, mouse BAD (murine BAD pro-apoptotic …)
[3] = biological target: T2, HSV-1 UL34 protein, P10218

Molecule	DEVDase activity (fold increase over mock-infected cells) (fold increase) [1]	DNA fragmentation (agarose gel) [2]	cleavage of poly(ADP-ribose) polymerase (Mr 85,000 PARP cleavage product, immunoblot) [2]	electrophoretic mobility and total amount of BAD (immunoblot with anti-BAD antibody) [2]	levels of BAD phosphorylated at ser136, ser155 and ser112 (immunoblot with phospho-specific antibodies) [2]	processing of UL34 protein (apparent Mr 30,000 against 33,000; 32P labelling and UL34 immunoblot) [3]
herpes simplex virus 1 (HSV-1) US3 protein kinase (from UniProt P04413 1-481) (enzyme)	< 2	–	–	–	–	–
B1	–	DNA fragmentation was not observed in extracts of Bac-Bad treated cells that had been previously exposed to Bac-US3	readily detected in mock- or in Bac-WT-infected cells that had been exposed to Bac-Bad, but not in Bac-US3 infected cells that had been exposed to Bac-Bad	migrated more slowly and was significantly reduced in amount relative to those detected in lysates of cells exposed to BAC-WT or mock-infected prior to exposure to Bac-BAD	The levels of BAD phosphorylated at ser136, ser155, and ser112 present in cells mock infected were similar to those present in cells infected with Bac-WT or Bac-US3	the fully processed UL34 protein was present in cells infected with HSV-1(F) but not cells infected with 120FR or R7041
